Values belong to the binder of their own block, whether it stands above or below them. Primed or numbered codes have the meaning given here. No end group written: not given here. *: point of attachment. TMR‑6COOH = tetramethylrhodamine, CN(C)c1ccc2c(-c3cc(C(=O)*)ccc3C(=O)[O-])c3ccc(N(C)C)cc3[o+]c2c1; Biotin = O=C1N[C@H]2[C@H](CS[C@H]2CCCCC(=O)*)N1; PEG2′ = Fmoc-PEG2-OH spacer; PEG4′ = not defined here
Assays:
TMR-Hpep9 conjugate = biological target: T1, TMR-Hpep9 conjugate; assay: fluorescence polarisation
T1 peptide: {TMR‑6COOH-PEG2′}-RGWSWREMFRLFRT

TMR-Hpep11 conjugate = biological target: T2, TMR-Hpep11 conjugate; assay: fluorescence polarisation
T2 peptide: {TMR‑6COOH-PEG2′}-SKRDWREMFRLFRT

biotin-Hpep9 conjugate = biological target: T3, biotin-Hpep9 conjugate; assay: BLI
T3 chain: {Biotin-PEG4′}-RGWSWREMFRLFRT

biotin-Hpep11 conjugate = biological target: T4, biotin-Hpep11 conjugate; assay: BLI
T4 chain: {Biotin-PEG4′}-SKRDWREMFRLFRT

Kd (TMR-Hpep9 conjugate): 26.3 nM
Kd (TMR-Hpep11 conjugate): 38.3 nM
B1: cpHaloΔ2 (His10-tagged) (domain or fragment)
chain: DVGRKLIIDQNVFIEGTLPMGVVRPLTEEEMDHYREPFLNPKDREPLWRFPNELPIAGEPANIVALVEEYMDWLHQSPVPKLLFWGTPGVLIPPAEAARLAKSLPNCKAVDIGPGLNLLQEDNPDLIGSEIARWLSTLEIKSKYDRDQILKIIAELEKKTGGSIGTGFPFDPHYVEVLGSRMHYVDVGPRDGTPVLFLHGNPTSSYVWRNIIPHVAPTHRCIAPDLIGMGKSDKPDLGYFFDDHVRFMDAFIEALGLEEVVLVIHDWGSALGFHWAKRHPERVKGIAFMEFIRPIPTWDEW

Kd (biotin-Hpep9 conjugate): 4.86 nM
koff (biotin-Hpep9 conjugate): 0.00104 s⁻¹
kon (biotin-Hpep9 conjugate): 214000 M⁻¹ s⁻¹
Kd (biotin-Hpep11 conjugate): 10.6 nM
koff (biotin-Hpep11 conjugate): 0.000687 s⁻¹
kon (biotin-Hpep11 conjugate): 64900 M⁻¹ s⁻¹
B2: TMR-labeled cpHaloΔ3 (domain or fragment)
chain: EKKGDVGRKLIIDQNVFIEGTLPMGVVRPLTEEEMDHYREPFLNPKDREPLWRFPNELPIAGEPANIVALVEEYMDWLHQSPVPKLLFWGTPGVLIPPAEAARLAKSLPNCKAVDIGPGLNLLQEDNPDLIGSEIARWLSTLEIKSKYDRDQILKIIAELEKKTGGSIGTGFPFDPHYVEVLGSRMHYVDVGPRDGTPVLFLHGNPTSSYVWRNIIPHVAPTHRCIAPDLIGMGKSDKPDLGYFFDDHVRFMDAFIEALGLEEVVLVIHDWGSALGFHWAKRHPERVKGIAFMEFIRPIPTWDEWGDVE
modifications: labeled with the HaloTag ligand CA-TMR (chloroalkane derivative of tetramethylrhodamine)

Kd (TMR-Hpep9 conjugate): 3.26 nM
Kd (TMR-Hpep11 conjugate): 1.34 nM
Kd (biotin-Hpep9 conjugate): 18.8 nM
koff (biotin-Hpep9 conjugate): 0.00149 s⁻¹
kon (biotin-Hpep9 conjugate): 78900 M⁻¹ s⁻¹
kon (biotin-Hpep11 conjugate): 50000 M⁻¹ s⁻¹
B3: SiR-labeled cpHaloΔ3 (domain or fragment)
chain: B2 chain
modifications: labeled with the HaloTag ligand CA-SiR (chloroalkane derivative of silicon rhodamine)
